Molecular target: human α2-macroglobulin tetramer, (hα2M)4 (human) (UniProt P01023)
Test: cryo-EM structure
Settings: scale: trypsin molecule per disulfide-linked hα2M dimer

Sequence of UniProt P01023 (P01023 24-1474): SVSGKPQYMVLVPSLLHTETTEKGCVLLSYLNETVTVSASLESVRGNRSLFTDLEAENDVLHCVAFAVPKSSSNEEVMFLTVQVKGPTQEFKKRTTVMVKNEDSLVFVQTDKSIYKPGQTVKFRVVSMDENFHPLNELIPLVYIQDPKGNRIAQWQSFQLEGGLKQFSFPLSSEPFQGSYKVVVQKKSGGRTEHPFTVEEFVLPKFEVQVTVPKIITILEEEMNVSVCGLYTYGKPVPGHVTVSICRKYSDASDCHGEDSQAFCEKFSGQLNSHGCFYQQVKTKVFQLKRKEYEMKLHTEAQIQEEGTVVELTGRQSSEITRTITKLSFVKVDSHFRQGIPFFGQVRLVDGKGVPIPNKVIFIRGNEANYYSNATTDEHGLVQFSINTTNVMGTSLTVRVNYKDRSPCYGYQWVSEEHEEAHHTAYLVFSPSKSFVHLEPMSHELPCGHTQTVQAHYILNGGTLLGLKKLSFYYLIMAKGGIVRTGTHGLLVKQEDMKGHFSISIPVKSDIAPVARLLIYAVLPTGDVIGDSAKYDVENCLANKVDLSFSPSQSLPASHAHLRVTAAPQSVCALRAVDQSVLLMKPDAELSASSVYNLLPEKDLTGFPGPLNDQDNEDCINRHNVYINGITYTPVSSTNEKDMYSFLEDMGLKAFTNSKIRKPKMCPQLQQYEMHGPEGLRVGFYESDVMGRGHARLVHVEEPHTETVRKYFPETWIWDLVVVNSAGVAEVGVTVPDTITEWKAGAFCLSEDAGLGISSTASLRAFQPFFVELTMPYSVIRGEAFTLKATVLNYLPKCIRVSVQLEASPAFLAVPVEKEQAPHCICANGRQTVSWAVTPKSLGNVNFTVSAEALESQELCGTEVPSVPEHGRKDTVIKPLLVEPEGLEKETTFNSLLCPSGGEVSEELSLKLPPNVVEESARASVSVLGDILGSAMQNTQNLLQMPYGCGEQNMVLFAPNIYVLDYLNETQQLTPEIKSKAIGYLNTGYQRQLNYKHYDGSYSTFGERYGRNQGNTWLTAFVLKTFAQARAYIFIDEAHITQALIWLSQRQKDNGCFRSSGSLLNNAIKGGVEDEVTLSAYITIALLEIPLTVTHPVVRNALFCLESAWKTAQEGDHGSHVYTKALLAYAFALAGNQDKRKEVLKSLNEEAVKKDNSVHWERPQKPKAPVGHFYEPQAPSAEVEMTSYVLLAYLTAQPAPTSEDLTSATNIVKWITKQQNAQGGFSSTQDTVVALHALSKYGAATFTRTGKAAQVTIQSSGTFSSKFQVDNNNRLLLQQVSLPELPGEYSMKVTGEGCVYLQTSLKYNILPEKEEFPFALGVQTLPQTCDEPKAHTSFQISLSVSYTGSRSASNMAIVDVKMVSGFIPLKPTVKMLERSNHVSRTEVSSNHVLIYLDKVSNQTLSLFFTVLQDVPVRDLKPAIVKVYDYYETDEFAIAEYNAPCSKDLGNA

Which stoichiometry N does the source give for bovine trypsin (enzyme) here?
Its stoichiometry N is 1.
